From doi:10.1101/2023.08.10.552813 (2023)
Where two headings read alike, the source gives them in different places.

B1: HpARI_CCP1/2 (HpARI with CCP3 truncated) (domain or fragment)
chain: AGQRCRFTDVERDKGYTGMLLKGRLRKTAGNGRTVELICGRGNHNYTCESGVLKESSPRQARCGCKGILEMLFDMPKEERPSPMYDSVTYDPTPNTPTTVGKDGIWNGVDYRNGSTVKPYCDTGPVINGSSKAVCVSGKWVPTLGVCPK
modifications: biotinylated with EZ-Link Sulfo-NHS-Biotin where immobilised for SPR
B2: mouse Interleukin 33 (residues 112-270) (ligand)
chain: SIQGTSLLTQSPASLSTYNDQSVSFVLENGCYVINVDDSGKDQEQDQVLLRYYESPCPASQSGDGVDGKKVMVNMSPIKDTDIWLHANDKDYSVELQRGDVSPPEQAFFVLHKKSSDFVSFECKNLPGTYIGVKDNQLALVEEKDESCNNIMFKLSKI
B3: HpARI-LD (full-length HpARI with residues 180-188 of the CCP3 loop deleted) (natural protein)
chain: AGQRCRFTDVERDKGYTGMLLKGRLRKTAGNGRTVELICGRGNHNYTCESGVLKESSPRQARCGCKGILEMLFDMPKEERPSPMYDSVTYDPTPNTPTTVGKDGIWNGVDYRNGSTVKPYCDTGPVINGSSKAVCVSGKWVPTLGVCPKMCSIGSLKENGKFVDVTATTKGDELNPPPRKVDKDKVQHGVKVVALCKAEDSTTAAEGVQEFECDNGKWKPEPVPCP
modifications: biotinylated with EZ-Link Sulfo-NHS-Biotin where immobilised for SPR
B4: Heligmosomoides polygyrus Alarmin Release Inhibitor (HpARI), full-length (natural protein)
chain: AGQRCRFTDVERDKGYTGMLLKGRLRKTAGNGRTVELICGRGNHNYTCESGVLKESSPRQARCGCKGILEMLFDMPKEERPSPMYDSVTYDPTPNTPTTVGKDGIWNGVDYRNGSTVKPYCDTGPVINGSSKAVCVSGKWVPTLGVCPKMCSIGSLKENGKFVDVTATTKGDELNPPPREQTLIPIVRKVDKDKVQHGVKVVALCKAEDSTTAAEGVQEFECDNGKWKPEPVPCP
modifications: biotinylated with EZ-Link Sulfo-NHS-Biotin where immobilised for SPR

Tests used:
Test in all cases: SPR
[1] = molecular target: B2
[2] = molecular target: T1, HpARI point mutant of residue E70 (Heligmosomoides polygyrus bakeri, biotinylated with EZ-Link Sulfo-NHS-Biotin where immobilised for SPR)
[3] = molecular target: T2, HpARI point mutant of residue Y112 (Heligmosomoides polygyrus bakeri, biotinylated with EZ-Link Sulfo-NHS-Biotin where immobilised for SPR)
[4] = molecular target: T3, HpARI point mutant of residue W107 (Heligmosomoides polygyrus bakeri, biotinylated with EZ-Link Sulfo-NHS-Biotin where immobilised for SPR)
[5] = molecular target: T4, HpARI-N152 (HpARI with an N-linked glycan inserted at residue 152, interface A) (Heligmosomoides polygyrus bakeri, N-linked glycan at residue 152)
[6] = molecular target: T1, HpARI point mutant of residue E70; remark: listed apart in the source
[7] = molecular target: T2, HpARI point mutant of residue Y112; remark: listed apart in the source
[8] = molecular target: T3, HpARI point mutant of residue W107; remark: listed apart in the source
[9] = molecular target: T4, HpARI-N152 (HpARI with an N-linked …); remark: listed apart in the source
[10] = molecular target: B2

B1
koff [1]: 0.00201 s⁻¹

B2
Kd [2]: 0.31 nM
koff [2]: 9.89e-05 s⁻¹
Kd [3]: 0.528 nM
koff [3]: 9.33e-05 s⁻¹
Kd [4]: 1.18 nM
koff [4]: 0.000162 s⁻¹
koff [5]: 6.12e-05 s⁻¹
Kd [6]: ~0.3 nM
Kd [7]: ~0.5 nM
Kd [8]: ~1.2 nM
Kd [9]: 0.0474 nM

B3
koff [1]: 0.00296 s⁻¹
Kd [10]: 4.53 nM

B4
koff [1]: 4.51e-05 s⁻¹
